In patent publication US20140087995A1 (published 2014):
Numbered stars: 1 amine (or outer) side, 2 acyl side, 3 side chain; on linkers, the order of the positions; unused ones are H or OH. Bridge positions count the residues as written; N and C are the ends. Side chains are listed from the residue outwards. Ends that are not written are not given here. * marks the point of attachment. C20 diacid = O=C(O)CCCCCCCCCCCCCCCCCCC(=O)*; γGlu = O=C(O)[C@H](CCC(=O)[*:2])N[*:1]

T1: rat calcitonin receptor (rat, UniProt P32214 25-516)
T1 construct: whole, on cells; Membranes prepared from transiently transfected BHK tk'ts 13 cells (Assay VIII); also called rCTR; rCT
T1 sequence (looked up): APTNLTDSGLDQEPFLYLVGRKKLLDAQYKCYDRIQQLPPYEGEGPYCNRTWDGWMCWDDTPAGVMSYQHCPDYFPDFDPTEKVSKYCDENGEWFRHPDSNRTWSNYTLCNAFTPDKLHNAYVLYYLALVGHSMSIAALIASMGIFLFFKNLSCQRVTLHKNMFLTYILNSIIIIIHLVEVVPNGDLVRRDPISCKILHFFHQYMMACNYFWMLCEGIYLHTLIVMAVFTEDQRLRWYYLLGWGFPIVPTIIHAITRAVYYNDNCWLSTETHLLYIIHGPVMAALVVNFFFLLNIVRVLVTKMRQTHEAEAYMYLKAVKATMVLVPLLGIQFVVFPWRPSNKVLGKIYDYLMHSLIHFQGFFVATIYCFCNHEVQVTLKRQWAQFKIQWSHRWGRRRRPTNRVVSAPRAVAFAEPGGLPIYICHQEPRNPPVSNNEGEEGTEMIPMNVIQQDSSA

T2: human calcitonin receptor (human, UniProt P30988 25-474)
T2 construct: whole, on cells; Membranes prepared from a stably transfected BHK cell line (Assay VII); also called hCTR; hCT
T2 sequence (looked up): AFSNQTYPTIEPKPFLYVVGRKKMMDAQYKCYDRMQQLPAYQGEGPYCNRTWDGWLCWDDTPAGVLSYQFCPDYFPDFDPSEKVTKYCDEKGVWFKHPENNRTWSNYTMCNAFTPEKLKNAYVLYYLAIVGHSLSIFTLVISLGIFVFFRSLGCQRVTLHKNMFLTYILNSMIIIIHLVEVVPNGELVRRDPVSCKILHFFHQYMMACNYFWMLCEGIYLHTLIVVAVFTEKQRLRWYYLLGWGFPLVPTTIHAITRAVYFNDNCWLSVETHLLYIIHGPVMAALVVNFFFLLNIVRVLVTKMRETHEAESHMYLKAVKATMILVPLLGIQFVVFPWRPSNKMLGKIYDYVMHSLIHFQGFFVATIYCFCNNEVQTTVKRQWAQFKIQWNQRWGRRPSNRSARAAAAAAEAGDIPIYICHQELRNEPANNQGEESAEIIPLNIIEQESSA

T3: rat amylin receptor (rat calcitonin receptor + rat RAMP 3) (rat, UniProt P32214 25-516; Q9JJ73 23-147)
T3 construct: whole, on cells; Membranes prepared from transiently transfected BHK tk'ts 13 cells (Assay VI); also called rAmylin-R; rAmylin
T3 sequence (looked up) 1: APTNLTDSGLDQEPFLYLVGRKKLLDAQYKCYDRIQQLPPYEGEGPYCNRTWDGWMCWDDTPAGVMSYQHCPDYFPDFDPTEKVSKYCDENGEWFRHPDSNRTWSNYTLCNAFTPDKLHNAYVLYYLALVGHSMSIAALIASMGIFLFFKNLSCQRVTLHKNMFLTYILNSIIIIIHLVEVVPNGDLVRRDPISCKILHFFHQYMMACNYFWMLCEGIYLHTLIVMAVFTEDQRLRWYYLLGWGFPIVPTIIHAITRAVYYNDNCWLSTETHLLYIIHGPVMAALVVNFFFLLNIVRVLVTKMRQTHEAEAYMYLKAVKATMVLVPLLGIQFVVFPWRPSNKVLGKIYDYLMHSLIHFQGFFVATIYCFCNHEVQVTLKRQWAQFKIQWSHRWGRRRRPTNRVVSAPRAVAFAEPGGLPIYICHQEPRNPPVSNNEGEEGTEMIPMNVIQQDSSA
T3 sequence (looked up) 2: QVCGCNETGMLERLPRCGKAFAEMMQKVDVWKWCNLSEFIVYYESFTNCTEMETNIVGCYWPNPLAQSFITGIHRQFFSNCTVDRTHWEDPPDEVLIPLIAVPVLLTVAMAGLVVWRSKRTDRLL


What was measured:
rat calcitonin receptor [1] = molecular target: T1, rat calcitonin receptor; test: SPA competition vs 125I-calcitonin, membranes of BHK cells with rat calcitonin receptor (Assay VIII)
rat calcitonin receptor [2] = molecular target: T1, rat calcitonin receptor; test: ratio of binding IC50s: rat calcitonin receptor / rat amylin receptor (reference)
[3] = molecular target: T2, human calcitonin receptor; test: ratio of binding IC50s: human calcitonin receptor / human amylin receptor (reference)
Method in brief: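 Competition binding by SPA uses membrane preparations (35 ng/μL final) in pH 7.4 Hepes buffer with 1 mM CaCl2 and 5 mM MgCl₂. Incubation lasts 120 min at 25° C, and IC₅₀ comes from one-site fitting.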

[4] = molecular target: T3, rat amylin receptor (rat calcitonin …); test: SPA competition vs 125I-rat amylin, membranes of BHK cells with rat calcitonin receptor + rat RAMP3 (Assay VI)

Binder	IC50 (rat calcitonin receptor [1]) [nM]	Ratio rCT/rAmylin binding (rat calcitonin receptor [2])	Ratio hCT/hAmylin binding [3]	IC50 [4] [nM]
K([γGlu-C20 diacid])CNTATCATQRLAHFLRHSSPNFGAIPSSTNVGSHTY-NH2 (disulfide 2-7; N-terminus assumed; SMILES CC[C@H](C)[C@H](NC(=O)[C@H](C)NC(=O)CNC(=O)[C@H](Cc1ccccc1)NC(=O)[C@H](CC(N)=O)NC(=O)[C@@H]1CCCN1C(=O)[C@H](CO)NC(=O)[C@H](CO)NC(=O)[C@H](Cc1c[nH]cn1)NC(=O)[C@H](CCCNC(=N)N)NC(=O)[C@H](CC(C)C)NC(=O)[C@H](Cc1ccccc1)NC(=O)[C@H](Cc1c[nH]cn1)NC(=O)[C@H](C)NC(=O)[C@H](CC(C)C)NC(=O)[C@H](CCCNC(=N)N)NC(=O)[C@H](CCC(N)=O)NC(=O)[C@@H](NC(=O)[C@H](C)NC(=O)[C@@H]1CSSC[C@H](NC(=O)[C@@H](N)CCCCNC(=O)CC[C@H](NC(=O)CCCCCCCCCCCCCCCCCCC(=O)O)C(=O)O)C(=O)N[C@@H](CC(N)=O)C(=O)N[C@@H]([C@@H](C)O)C(=O)N[C@@H](C)C(=O)N[C@@H]([C@@H](C)O)C(=O)N1)[C@@H](C)O)C(=O)N1CCC[C@H]1C(=O)N[C@@H](CO)C(=O)N[C@@H](CO)C(=O)N[C@H](C(=O)N[C@@H](CC(N)=O)C(=O)N[C@H](C(=O)NCC(=O)N[C@@H](CO)C(=O)N[C@@H](Cc1c[nH]cn1)C(=O)N[C@H](C(=O)N[C@@H](Cc1ccc(O)cc1)C(N)=O)[C@@H](C)O)C(C)C)[C@@H](C)O, Analogue of human amylin; also called compound 66)	20.8	35.8	45.5	0.581
K([γGlu-γGlu-C20 diacid])CNTATCATQRLANFLRHSSPNFGAIPSSTNVGHNTY-NH2 (disulfide 2-7; N-terminus assumed; SMILES CC[C@H](C)[C@H](NC(=O)[C@H](C)NC(=O)CNC(=O)[C@H](Cc1ccccc1)NC(=O)[C@H](CC(N)=O)NC(=O)[C@@H]1CCCN1C(=O)[C@H](CO)NC(=O)[C@H](CO)NC(=O)[C@H](Cc1c[nH]cn1)NC(=O)[C@H](CCCNC(=N)N)NC(=O)[C@H](CC(C)C)NC(=O)[C@H](Cc1ccccc1)NC(=O)[C@H](CC(N)=O)NC(=O)[C@H](C)NC(=O)[C@H](CC(C)C)NC(=O)[C@H](CCCNC(=N)N)NC(=O)[C@H](CCC(N)=O)NC(=O)[C@@H](NC(=O)[C@H](C)NC(=O)[C@@H]1CSSC[C@H](NC(=O)[C@@H](N)CCCCNC(=O)CC[C@H](NC(=O)CC[C@H](NC(=O)CCCCCCCCCCCCCCCCCCC(=O)O)C(=O)O)C(=O)O)C(=O)N[C@@H](CC(N)=O)C(=O)N[C@@H]([C@@H](C)O)C(=O)N[C@@H](C)C(=O)N[C@@H]([C@@H](C)O)C(=O)N1)[C@@H](C)O)C(=O)N1CCC[C@H]1C(=O)N[C@@H](CO)C(=O)N[C@@H](CO)C(=O)N[C@H](C(=O)N[C@@H](CC(N)=O)C(=O)N[C@H](C(=O)NCC(=O)N[C@@H](Cc1c[nH]cn1)C(=O)N[C@@H](CC(N)=O)C(=O)N[C@H](C(=O)N[C@@H](Cc1ccc(O)cc1)C(N)=O)[C@@H](C)O)C(C)C)[C@@H](C)O, Analogue of human amylin; also called compound 86)	352	126	159	2.8
K([γGlu-γGlu-C20 diacid])CNTATCATQRLAEFLRHSSPNFGAIPSSTNVGRNTY-NH2 (disulfide 2-7; N-terminus assumed; SMILES CC[C@H](C)[C@H](NC(=O)[C@H](C)NC(=O)CNC(=O)[C@H](Cc1ccccc1)NC(=O)[C@H](CC(N)=O)NC(=O)[C@@H]1CCCN1C(=O)[C@H](CO)NC(=O)[C@H](CO)NC(=O)[C@H](Cc1c[nH]cn1)NC(=O)[C@H](CCCNC(=N)N)NC(=O)[C@H](CC(C)C)NC(=O)[C@H](Cc1ccccc1)NC(=O)[C@H](CCC(=O)O)NC(=O)[C@H](C)NC(=O)[C@H](CC(C)C)NC(=O)[C@H](CCCNC(=N)N)NC(=O)[C@H](CCC(N)=O)NC(=O)[C@@H](NC(=O)[C@H](C)NC(=O)[C@@H]1CSSC[C@H](NC(=O)[C@@H](N)CCCCNC(=O)CC[C@H](NC(=O)CC[C@H](NC(=O)CCCCCCCCCCCCCCCCCCC(=O)O)C(=O)O)C(=O)O)C(=O)N[C@@H](CC(N)=O)C(=O)N[C@@H]([C@@H](C)O)C(=O)N[C@@H](C)C(=O)N[C@@H]([C@@H](C)O)C(=O)N1)[C@@H](C)O)C(=O)N1CCC[C@H]1C(=O)N[C@@H](CO)C(=O)N[C@@H](CO)C(=O)N[C@H](C(=O)N[C@@H](CC(N)=O)C(=O)N[C@H](C(=O)NCC(=O)N[C@@H](CCCNC(=N)N)C(=O)N[C@@H](CC(N)=O)C(=O)N[C@H](C(=O)N[C@@H](Cc1ccc(O)cc1)C(N)=O)[C@@H](C)O)C(C)C)[C@@H](C)O, Analogue of human amylin; also called compound 88)	196	84.9	46.5	2.31
K([γGlu-C20 diacid])CNTATCATQRLAHFLRHSSPNFGAIPSSTNVGPNTY-NH2 (disulfide 2-7; N-terminus assumed; SMILES CC[C@H](C)[C@H](NC(=O)[C@H](C)NC(=O)CNC(=O)[C@H](Cc1ccccc1)NC(=O)[C@H](CC(N)=O)NC(=O)[C@@H]1CCCN1C(=O)[C@H](CO)NC(=O)[C@H](CO)NC(=O)[C@H](Cc1c[nH]cn1)NC(=O)[C@H](CCCNC(=N)N)NC(=O)[C@H](CC(C)C)NC(=O)[C@H](Cc1ccccc1)NC(=O)[C@H](Cc1c[nH]cn1)NC(=O)[C@H](C)NC(=O)[C@H](CC(C)C)NC(=O)[C@H](CCCNC(=N)N)NC(=O)[C@H](CCC(N)=O)NC(=O)[C@@H](NC(=O)[C@H](C)NC(=O)[C@@H]1CSSC[C@H](NC(=O)[C@@H](N)CCCCNC(=O)CC[C@H](NC(=O)CCCCCCCCCCCCCCCCCCC(=O)O)C(=O)O)C(=O)N[C@@H](CC(N)=O)C(=O)N[C@@H]([C@@H](C)O)C(=O)N[C@@H](C)C(=O)N[C@@H]([C@@H](C)O)C(=O)N1)[C@@H](C)O)C(=O)N1CCC[C@H]1C(=O)N[C@@H](CO)C(=O)N[C@@H](CO)C(=O)N[C@H](C(=O)N[C@@H](CC(N)=O)C(=O)N[C@H](C(=O)NCC(=O)N1CCC[C@H]1C(=O)N[C@@H](CC(N)=O)C(=O)N[C@H](C(=O)N[C@@H](Cc1ccc(O)cc1)C(N)=O)[C@@H](C)O)C(C)C)[C@@H](C)O, Analogue of human amylin; also called compound 67)	14.7	85.4	51.6	0.172
K([γGlu-C20 diacid])CNTATCATQRLAHFLRHSSPNFGAIPSSTPVGSNTY-NH2 (disulfide 2-7; N-terminus assumed; SMILES CC[C@H](C)[C@H](NC(=O)[C@H](C)NC(=O)CNC(=O)[C@H](Cc1ccccc1)NC(=O)[C@H](CC(N)=O)NC(=O)[C@@H]1CCCN1C(=O)[C@H](CO)NC(=O)[C@H](CO)NC(=O)[C@H](Cc1c[nH]cn1)NC(=O)[C@H](CCCNC(=N)N)NC(=O)[C@H](CC(C)C)NC(=O)[C@H](Cc1ccccc1)NC(=O)[C@H](Cc1c[nH]cn1)NC(=O)[C@H](C)NC(=O)[C@H](CC(C)C)NC(=O)[C@H](CCCNC(=N)N)NC(=O)[C@H](CCC(N)=O)NC(=O)[C@@H](NC(=O)[C@H](C)NC(=O)[C@@H]1CSSC[C@H](NC(=O)[C@@H](N)CCCCNC(=O)CC[C@H](NC(=O)CCCCCCCCCCCCCCCCCCC(=O)O)C(=O)O)C(=O)N[C@@H](CC(N)=O)C(=O)N[C@@H]([C@@H](C)O)C(=O)N[C@@H](C)C(=O)N[C@@H]([C@@H](C)O)C(=O)N1)[C@@H](C)O)C(=O)N1CCC[C@H]1C(=O)N[C@@H](CO)C(=O)N[C@@H](CO)C(=O)N[C@H](C(=O)N1CCC[C@H]1C(=O)N[C@H](C(=O)NCC(=O)N[C@@H](CO)C(=O)N[C@@H](CC(N)=O)C(=O)N[C@H](C(=O)N[C@@H](Cc1ccc(O)cc1)C(N)=O)[C@@H](C)O)C(C)C)[C@@H](C)O, Analogue of human amylin; also called compound 62)	18	42.8	63	0.42
